Laboratory results from patent US20220204602A1.

Experiments:
[1] = biological target: Cynomolgus C5 (Cynomolgus); assay: BLI (Gator); pH 5.8
[2] = biological target: Cynomolgus C5 (Cynomolgus); assay: BLI (Gator); pH 7.4
human FcRn (human) = human FcRn (human) (UniProt P55899); assay: SPR (Biacore); pH 6.0

- Kd [1]: 41.1 nM
- Kd [2]: 6.04 nM
- Ka (human FcRn (human)): 1.13e+08 M⁻¹
Substance: anti-C5 mAb/FH SCR1-5 fusion protein FMEH-IgG4PLA-FH1-5 (from UniProt P08603 19-322)
